Experimental data published in the DeepSol protein solubility set.

Assay: soluble on expression in E. coli; label from the status in PepcDB or PDB records
In the case of “MGSSHHHHHHSSGLEVLFQGPHMDFDVKRKYFRQELERLDEGLRKEDMAVHVRRDHVFEDSYRELHRKSPEEMKNRLYIVFEGEEGQDAGGLLREWYMIISREMFNPMYALFRTSPGDRVTYTINPSSHANPNHLSYFKFVGRIVAKAVYDNRLLECYFTRSFYKHILGKSVRYTDMESEDYHFYQGLVYLLENDVSTLGYDLTFSTEVQEFGVAEVRDLKPNGANILVTEENKKEYVHLVCQMRMTGAIRKQLAAFLEGFYEIIPKRLISIFTEQELELLISGLPTIDIDDLKSNTEYHKYQSNSIQIQWFWRALRSFDQADRAKFLQFVTGTSKVPLQGFAALEGMNGIQKFQIHRDDRSTDRLPSAHTCFNQLDLPAYESFEKLRHMLLLAIQEASEGFGLA”, the “soluble on expression in E. coli” value is reported as “soluble”.
With “MGSSHHHHHHSSGLVPRGSHMASMAGLGHPAAFGRATHAVVRALPESLGQHALRSAKGEEVDVARAERQHQLYVGVLGSKLGLQVVELPADESLPDCVFVEDVAVVCEETALITRPGAPSRRKEVDMMKEALEKLQLNIVEMKDENATLDGGDVLFTGREFFVGLSKRTNQRGAEILADTFKDYAVSTVPVADGLHLKSFCSMAGPNLIAIGSSESAQKALKIMQQMSDHRYDKLTVPDDIAANCIYLNIPNKGHVLLHRTPEEYPESAKVYEKLKDHMLIPVSMSELEKVDGLLTCCSVLINKKVDS” the “soluble on expression in E. coli” value was “soluble”.
In the case of “MGSSHHHHHHSSGLVPRGSHMEAIGVLMMCPMSTYLEQELDKRFKLFRYWTQPAQRDFLALQAESIRAVVGNSNAGADAELIDALPKLEIVSSFSVGLDKVDLIKCEEKGVRVTNTPDVLTDDVADLAIGLILAVLRRICECDKYVRRGAWKFGDFKLTTKFSGKRVGIIGLGRIGLAVAERAEAFDCPISYFSRSKKPNTNYTYYGSVVELASNSDILVVACPLTPETTHIINREVIDALGPKGVLINIGRGPHVDEPELVSALVEGRLGGAGLDVFEREPEVPEKLFGLENVVLLPHVGSGTVETRKVMADLVVGNLEAHFSGKPLLTPVV”, the “soluble on expression in E. coli” value is reported as “soluble”.
For “MGSSHHHHHHSSGLVPRGSHMEFKVIAEYFDKLEKISSRLQLTALLADLLSKSDKTIIDKVVYIIQGKLWPDFLGYPELGIGEKFLIKAISIATNTDENSVENLYKTIGDLGEVARRLKSKQQSTGILGFLGTTSKESLTVDEVYSTLSKVALTTGEGSRDLKIRLLAGLLKKADPLEAKFLVRFVEGRLRVGIGDATVLDAMAIAFGGGQSASEIIERAYNLRADLGNIAKIIVEKGIEALKTLKPQVGIPIRPMLAERLSNPEEILKKMGGNAIVDYKYDGERAQIHKKEDKIFIFSRRLENITSQYPDVVDYVSKYIEGKEFIIEGEIVAIDPESGEMRPFQELMHRKRKSDIYEAIKEYPVNVFLFDLMYYEDVDYTTKPLEARRKLLESIVKPNDYVKIAHHIQANNVEDLKSFFYRAISEGGEGVMVKAIGKDAIYQAGARGWLWIKLKRDYQSEMADTVDLVVVGGFYGKGKRGGKISSLLMAAYNPKTDSFESVCKVASGFSDEQLDELQKKLMEIKRDVKHPRVNSKMEPDIWVEPVYVAEIIGSEITISPLHTCCQDVVEKDAGLSIRFPRFIRWRDDKSPEDATTTDEILEMYNKQPKKKIESPAVDESV”, the “soluble on expression in E. coli” value was “soluble”.
With “MGSSHHHHHHSSGLVPRGSHMIRYSEVTPYHVTSVWTKGVTPPANFTQGEDVFHAPYVANQGWYDITKTFNGKDDLLSGAATAGNMLHWWFDQNKDQIKRYLEEHPEKQKINFNGEQMFDVKEAIDTKNHQLDSKLFEYFKEKAFPYLSTKHLGVFPDHVIDMFINGYRLSLTNHGPTPVKEGSKDPRGGIFDAVFTRGDQSKLLTSRHDFKEKNLKEISDLIKKELTEGKALGLSHTYANVRINHVINLWGADFDSNGNLKAIYVTDSDSNASIGMKKYFVGVNSAGKVAISAKEIKEDNIGAQVLGLFTLSTGQDSWNQTN” the “soluble on expression in E. coli” value was “soluble”.
With “MGSSHHHHHHSSGLVPRGSHMKKNSLALSLTADQMVSALLDAEPPILYSEYDPTRPFSEASMMGLLTNLADRELVHMINWAKRVPGFVDLTLHDQVHLLECAWLEILMIGLVWRSMEHPVKLLFAPNLLLDRNQGKCVEGMVEIFDMLLATSSRFRMMNLQGEEFVCLKSIILLNSGVYTFLSSTLKSLEEKDHIHRVLDKITDTLIHLMAKAGLTLQQQHQRLAQLLLILSHIRHMSNKGMEHLYSMKCKNVVPLYDLLLEMLDAHRLHAP” the “soluble on expression in E. coli” value was “not soluble”.
In the case of “MGSSHHHHHHSSGLVPRGSHMKMSFRWYGKKDPVTLEEIKAIPGMQGIVTAVYDVPVGQAWPLENILELKKMVEEAGLEITVIESIPVHEDIKQGKPNRDALIENYKTSIRNVGAAGIPVVCYNFMPVFDWTRSDLHHPLPDGSTSLAFLKSDLAGVDPVADDLNLPGWDSSYSKEEMKAIIENYRQNISEEDLWANLEYFIKAILPTAEEAGVKMAIHPDDPPYGIFGLPRIITGQEAVERFLNLYDSEHNGITMCVGSYASDPKNDVLAMTEYALKRNRINFMHTRNVTAGAWGFQETAHLSQAGDIDMNAVVKLLVDYDWQGSLRPDHGRRIWGDQTKTPGYGLYDRALGATYFNGLYEANMRAAGKTPDFGIKAKTVGTKEG”, the “soluble on expression in E. coli” value is reported as “soluble”.
With “MGSSHHHHHHSSGLVPRGSHMNTNSNTMVMNDANQAQITATFTKKILAHLDDPDSNKLAQFVQLFNPNNCRIIFNATPFAQATVFLQMWQNQVVQTQHALTGVDYHAIPGSGTLICNVNCKVRFDESGRDKMGQDATVPIQPNNTGNRNRPNDMNKPRPLWGPYFGISLQLIIDDRIFRNDFNGVISGFNYNMVYKPEDSLLKI” the “soluble on expression in E. coli” value was “soluble”.
With “MGSSHHHHHHSSGLVPRGSHMRIGMVCPYSFDVPGGVQSHVLQLAEVLRDAGHEVSVLAPASPHVKLPDYVVSGGKAVPIPYNGSVARLRFGPATHRKVKKWIAEGDFDVLHIHEPNAPSLSMLALQAAEGPIVATFHTSTTKSLTLSVFQGILRPYHEKIIGRIAVSDLARRWQMEALGSDAVEIPNGVDVASFADAPLLDGYPREGRTVLFLGRYDEPRKGMAVLLAALPKLVARFPDVEILIVGRGDEDELREQAGDLAGHLRFLGQVDDATKASAMRSADVYCAPHLGGESFGIVLVEAMAAGTAVVASDLDAFRRVLADGDAGRLVPVDDADGMAAALIGILEDDQLRAGYVARASERVHRYDWSVVSAQIMRVYETVSGAGIKVQVSGAANRDETAGESV” the “soluble on expression in E. coli” value was “soluble”.
For “MGSSHHHHHHSSGLVPRGSHMSKARVYADVNVLRPKEYWDYEALTVQWGEQDDYEVVRKVGRGKYSEVFEGINVNNNEKCIIKILKPVKKKKIKREIKILQNLCGGPNIVKLLDIVRDQHSKTPSLIFEYVNNTDFKVLYPTLTDYDIRYYIYELLKALDYCHSQGIMHRDVKPHNVMIDHELRKLRLIDWGLAEFYHPGKEYNVRVASRYFKGPELLVDLQDYDYSLDMWSLGCMFAGMIFRKEPFFYGHDNHDQLVKIAKVLGTDGLNAYLNKYRIELDPQLEALVGRHSRKPWLKFMNADNQHLVSPEAIDFLDKLLRYDHQERLTALEAMTHPYFQQVRAAENSRTRA”, the “soluble on expression in E. coli” value was “soluble”.
For “MGSSHHHHHHSSGLVPRGSHMTDKLTSLRQYTTVVADTGDIAAMKLYQPQDATTNPSLILNAAQIPEYRKLIDDAVAWAKQQSNDRAQQIVDATDKLAVNIGLEILKLVPGRISTEVDARLSYDTEASIAKAKRLIKLYNDAGISNDRILIKLASTWQGIRAAEQLEKEGINCNLTLLFSFAQARACAEAGVFLISPYVGEILDWYKANTDKKEYAPAEDPGVVSVSEIYQYYKEHGYETVVMGASFRNIGEILELAGCDRLTIAPTLLKELAESEGAIERKLSYTGEVKARPARITESEFLWQHNQDPMAVDKLAEGIRKFAIDQEKLEKMIGDLL”, the “soluble on expression in E. coli” value was “soluble”.
In the case of “MGSSHHHHHHSSGLVPRGSHMWIGVISLFPEMFKAITEFGVTGRAVKHNLLKVECWNPRDFTFDKHKTVDDRPYGGGPGMLMMVQPLRDAIHTAKAAAGEGAKVIYLSPQGRKLDQGGVTELAQNQKLILVCGRYEGIDERLIQTEIDEEWSIGDYVLTGGELPAMTLIDAVARFIPGVLGKQASAEEDSFADGLLDCPHYTRPEVLEGLTVPPVLMSGHHEEIRKWRLKQSLQRTWLRRPELLEGLALTDEQRKLLKEAQAEHNSLEHHHHHH”, the “soluble on expression in E. coli” value is reported as “soluble”.
In the case of “MGSSHHHHHHSSGLVPRGSMGFKVKLEKRRNAINTCLCIGLDPDEKDIENFMKNEKENNYNNIKKNLKEKYINNVSIKKDILLKAPDNIIREEKSEEFFYFFNHFCFYIINETNKYALTFKMNFAFYIPYGSVGIDVLKNVFDYLYELNIPTILDMKINDIGNTVKNYRKFIFEYLKSDSCTVNIYMGTNMLKDICYDEEKNKYYSAFVLVKTTNPDSAIFQKNLSLDNKQAYVIMAQEALNMSSYLNLEQNNEFIGFVVGANSYDEMNYIRTYFPNCYILSPGIGAQNGDLHKTLTNGYHKSYEKILINIGRAITKNPYPQKAAQMYYDQINAILKQNMES”, the “soluble on expression in E. coli” value is reported as “soluble”.
In the case of “MGSSHHHHHHSSGRENLYFQGHMFFTDWEGPWILTDFALELCMAVFNNARFFSNLSEYDDYLAYEVRREGYEAGYTLKLLTPFLAAAGVKNRDVERIAELSAKFVPDAEKAMATLQERWTPVVISTSYTQYLRRTASMIGVRGELHGTEVDFDSIAVPEGLREELLSIIDVIASLSGEELFRKLDELFSRSEVRKIVESVKAVGAGEKAKIMRGYCESKGIDFPVVVGDSISDYKMFEAARGLGGVAIAFNGNEYALKHADVVIISPTAMSEAKVIELFMERKERAFEVLSAVSIPETEIYIMENSDFGEVLEKSKRMRVRLRGLAGELGGS”, the “soluble on expression in E. coli” value is reported as “soluble”.
For “MGSSHHHHHHSSGRENLYFQGHMMSGHNKWANIKHRKMAQDAKKSKIFTKLIREIIVAAREGGGNIETNPRLRAAVERARAENMPKENIERAIKRGTGELEGVDYQEVIYEGYAPGGVAVYIRALTDNKNRTAQELRHLFNKYGGSLAESGSVSWIFERKGVIEISRDKVKDLEELMMIAIDAGAEDIKDAEDPIQIITAPENLSEVKSKLEEAGYEVEAKVTFIPKNTVKVTGKDAEKVLEFLNALEDMDDVQEVYSNFEMDDKEMEEILSRLEG”, the “soluble on expression in E. coli” value was “soluble”.
For “MGSSHHHHHHSSGRENLYFQGHMPSNLNIVKVTKPQEENKNFLHKNTNEPNEMEQSQTQEAVTENFTENSNLSANEHAARRGRLNLKTVDHIETYPIVQETEEIAKKIALTRIILAQTKPRIDKVVVSRPVQAVAPVVNFFDKMANSTLSTVERVVPSLKTKTYKRLGEEIALPYTLSKKYGKQLRDTTARNGDNYVYQPVHGRLMKFRKYYNEKFIDTKGKPLIRGQLDPVLLPVNNTFEKVTVKYLPKGKKVPNDSFSCEFNRGLALEYNFMTRAVSAVSHQVVGIAKLPIAYGYHTNSVYNKNLDKQADLKMKNVLRGTWDTITDLEREIWASVTDRSLFRFFGNKSEGGDLPHLVQ”, the “soluble on expression in E. coli” value was “soluble”.
For “MGSSHHHHHHSSGRENLYFQGHMTRSAEPRVLQFCHGYDGPFLDCARQYASLFAGTPYKVTTVFLTGRSDPEVAARCASDEVLFLEYGSRDIRGLKLKAIRDLREIARSRDFRFCIAHRFKPIWIASLATRLPIVGVHHAFGDYQRLSRKVFAGLMSKRLSLLAVSDAVRDDIRRCLPKWPAERIETLYNRIDVAALQAEQVERLSARRQLRLPDEAWVVGNVGRLHPDKDQATLLRGFAAALPRLPQNSLLAILGSGRLEEQLKDLACELGIGERVLFLGQVEEARRYFKAFDAFALSSDHEPFGMVLLEAMVAGVPLIATACGGAREVVEGVGILFPLGDETALAEGLTHLAALDRRQREACARLMLERLETRFSDAAVRREFWRLPTIAGFASESAC”, the “soluble on expression in E. coli” value was “soluble”.
For “MGSYIQMSGIGSRLRQERERLGLSQKVFGEIGGVEANAQGKYESGDRAPKADYLSRVAAKGVDVLYVLTGSRIPIQSGGLSQTEEKVLDCYRALFKEDQDAICRLTSTLAELSASQGERRKAQVRE”, the “soluble on expression in E. coli” value was “soluble”.
In the case of “MGTFNNSIQEKIEKLQKTVDTLLHMGENMDCICVDDLSLLNKEIHEQINDLYPYHGKTAEQEAALCLSLLMGYSVSMYANSEDEAKKKTVLRRSQMILKNQLPSPLKIQLHTIYDKLLS”, the “soluble on expression in E. coli” value is reported as “not soluble”.
